Measurements reported in US20230140293A1.

Tests used:
CH505 M11 gp120 (HIV-1) = assay: ELISA, gp120 on plate
[1] = biological target: CH505 w020.14 gp120 (HIV-1); assay: ELISA, gp120 on plate
[2] = biological target: CH505 transmitted/founder (TF) gp120 (HIV-1); assay: ELISA, gp120 on plate
[3] = biological target: CH505 TF chimeric SOSIP.III trimer (CH505TFchim.6R.SOSIP.664V4.1) (HIV-1 (CH505 gp120 / BG505 gp41 chimera)); assay: kinetics, method not named (FIG. 69); reference CH505 TF gp120
[4] = biological target: CH505 transmitted/founder (TF) gp120 (HIV-1); assay: SPR

**Q.** Which log AUC (CH505 M11 gp120 (HIV-1)) does the source give for “CH103 lineage unmutated common ancestor (UCA) (antibody)” here?
**A.** 2.6 log AUC

**Q.** And the log AUC [1]?
**A.** 0.3 log AUC

**Q.** What about the log AUC [2] of the same substance?
**A.** 3.5 log AUC

**Q.** And the fold improvement of the off-rate against CH505 TF gp120 [3]?
**A.** 10 fold

**Q.** And the Kd [4]?
**A.** 200 nM
